These results are taken from patent publication US12723100 (CSPC MEGALITH BIOPHARMACEUTICAL, dated 2026).

In general, EC50 refers to the concentration that produces a half-maximal response.

Numbering of substitutions follows the chain as printed.

The target in test [1] is T1, rat Nectin-4 (rat, UniProt Q8R007 31-508 (mouse entry)).
T1 construct: Transiently expressed on 293T cells
T1 chain: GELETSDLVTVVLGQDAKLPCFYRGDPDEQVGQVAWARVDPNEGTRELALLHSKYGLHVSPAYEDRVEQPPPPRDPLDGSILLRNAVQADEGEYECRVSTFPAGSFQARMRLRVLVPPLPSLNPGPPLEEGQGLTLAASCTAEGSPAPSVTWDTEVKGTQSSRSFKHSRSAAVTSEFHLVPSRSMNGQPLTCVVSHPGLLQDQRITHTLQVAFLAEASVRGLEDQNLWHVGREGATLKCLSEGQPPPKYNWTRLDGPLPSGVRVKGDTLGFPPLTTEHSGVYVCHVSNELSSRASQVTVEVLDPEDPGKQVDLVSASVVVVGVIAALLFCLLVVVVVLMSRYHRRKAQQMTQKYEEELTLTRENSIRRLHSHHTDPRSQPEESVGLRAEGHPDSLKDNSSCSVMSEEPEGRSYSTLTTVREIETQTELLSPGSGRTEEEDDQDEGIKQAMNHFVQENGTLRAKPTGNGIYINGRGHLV
The test can be described thus: flow cytometry, transfected 293T cells; + EC50 between 25 nM and 133 nM. The procedure:
(§1) CDNAs encoding Nectin-4 protein from cynomolgus monkey (SEQ ID NO: 62), rat (SEQ ID NO: 63), or mouse (SEQ ID NO: 64) were separately cloned into a pcDNA3.1-based mammalian expression plasmid. The respective plasmids were transfected to human 293T cells in a similar way described in Example 6. The binding EC50 of disclosed human Nectin-4 antibodies to species-specific Nectin-4 transiently expressed on 293T cell surface was measured by flow cytometry.

Test [2] deals with T2, full-length human Nectin-4 on cells (human, UniProt Q96NY8 32-510).
T2 construct: the cell is named under assay; also called CHO-Nectin-4 cells; Nectin-4-CHO
T2 sequence: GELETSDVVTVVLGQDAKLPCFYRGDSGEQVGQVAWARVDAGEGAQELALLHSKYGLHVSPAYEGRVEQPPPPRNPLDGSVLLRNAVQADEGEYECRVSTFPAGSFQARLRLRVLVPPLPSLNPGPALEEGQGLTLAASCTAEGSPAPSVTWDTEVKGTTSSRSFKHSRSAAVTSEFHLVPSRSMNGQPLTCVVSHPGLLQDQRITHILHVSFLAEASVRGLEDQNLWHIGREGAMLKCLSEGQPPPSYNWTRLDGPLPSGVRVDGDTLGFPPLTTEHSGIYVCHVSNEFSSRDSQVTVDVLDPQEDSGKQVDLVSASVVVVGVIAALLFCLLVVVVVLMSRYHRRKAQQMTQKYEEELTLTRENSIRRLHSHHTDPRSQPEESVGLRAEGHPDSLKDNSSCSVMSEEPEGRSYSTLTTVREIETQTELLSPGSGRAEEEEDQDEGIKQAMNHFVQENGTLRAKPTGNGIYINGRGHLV
Put plainly: flow cytometry competition on CHO-Nectin-4 cells; competitor biotinylated human TIGIT; TIGIT as competitor. How it is done:
The ability of disclosed Nectin4-specific antibodies to block TIGIT binding to CHO-Nectin-4 cells was assessed by FACS. Briefly, CHO-Nectin-4 cells were incubated with dilutions of the disclosed purified recombinant antibodies. Then, biotinylated human TIGIT protein (SinoBiologic, catalog: 10917-H08H-B, lot: LC13AP0902) was added to the plate. After 30-minute incubation, cells were washed, followed by adding Streptavidin Alexa 647 (1:1000) to the samples. After a 30 minute incubation, the samples were analyzed on a flow cytometry instrument (Intellicyte, IQue plus, Sartorius) for TIGIT blocking activity. The positive control antibody used in this blocking assay is PC2, a Nectin-4 antibody with known blocking activity.
For orientation: In flow cytometry, cells or beads pass a laser one at a time.

The target in test [3] is T2, full-length human Nectin-4 on cells. The test can be described thus: flow cytometry competition on CHO-Nectin-4 cells; competitor biotinylated human Nectin-1-His; Nectin-1 as competitor. The procedure: The ability of disclosed Nectin4-specific antibodies to block Nectin-1 binding to Nectin-4 expressing cells (CHO cells transfected with human Nectin-4) was determined by FACS. Briefly, CHO-Nectin-4 cells were incubated with dilutions of the disclosed Nectin-4 purified recombinant antibodies. Then, biotinylated human Nectin-1 with His tag (ACROBiosystems, catalog number: PV1-H5223, lot: 733-38GS1-47, 0.75 ug/ml) was added to the plate. After 30-minute incubation, cells were washed, followed by adding Streptavidin Alexa 647 (1:1000) to the samples. After a 30 minute incubation, the samples were analyzed on a flow cytometry instrument (Intellicyte, IQue plus, Sartorius) for Nectin-1 blocking activity. The positive control antibody used in this blocking assay is a reference antibody (known to be a recombinant Nectin-4 specific antibody, made by Novarock Biotherapeutics, lot: 03042020KD).

For test [4], the target named is T1, rat Nectin-4. The test can be described thus: flow cytometry, transfected 293T cells; +++ EC50 less than 5 nM. The procedure: as §1
Test [5] addresses T3, mouse Nectin-4 (mouse, UniProt Q8R007 31-508).
T3 construct: Transiently expressed on 293T cells; also called murine Nectin-4
T3 sequence: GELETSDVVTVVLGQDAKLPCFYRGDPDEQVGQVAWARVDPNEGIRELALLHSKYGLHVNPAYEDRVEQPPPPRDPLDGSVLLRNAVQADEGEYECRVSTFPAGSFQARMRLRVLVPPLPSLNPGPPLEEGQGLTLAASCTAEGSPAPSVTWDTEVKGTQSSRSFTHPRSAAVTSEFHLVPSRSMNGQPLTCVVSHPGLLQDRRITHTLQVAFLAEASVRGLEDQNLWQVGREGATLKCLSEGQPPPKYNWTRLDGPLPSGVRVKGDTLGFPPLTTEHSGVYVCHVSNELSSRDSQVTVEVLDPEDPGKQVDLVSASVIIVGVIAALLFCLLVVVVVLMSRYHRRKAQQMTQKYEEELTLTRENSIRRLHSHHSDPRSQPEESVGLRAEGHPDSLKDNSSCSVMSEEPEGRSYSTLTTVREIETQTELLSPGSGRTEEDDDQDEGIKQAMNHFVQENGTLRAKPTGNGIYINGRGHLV
The test can be described thus: flow cytometry, transfected 293T cells; + EC50 between 25 nM and 133 nM. How it is done: as §1

Test [6] deals with T3, mouse Nectin-4. The test can be described thus: flow cytometry, transfected 293T cells; ++ EC50 between 5 nM and 25 nM. The procedure: as §1
Test [7] addresses T1, rat Nectin-4. The test is described as above. How it is done: as §1

B1: N4_mAb 4 (antibody, human IgG1, V domains shown)
VH: DVQLQESGPDLVKPSQSLSLTCTVTGYSITSAYNWHWIRQFPGNKLEWMGYIHYSGRTNYNPSLKSRISITRDTSKNQFFLQLNSLTTEDTATYYCARWITTATGWYLDVWGAGTTVTVSS
VL: not shown
notes: Tested as chimera (human IgG1/kappa constants); not shown: human IgG1 constant region (Uniprot P01857); human Kappa light chain constant region (UniProt P01834)
For B1, the EC50 in test [1] is 25 to 133 nM; in test [2] it was greater than 130 nM; in test [3] it was greater than 130 nM.

B2: N4_mAb 5 (antibody, human IgG1, V domains shown)
VH: EVQLQQSGPDLVKPGASVKISCKASGYSFTGHYMHWVKQSHGKSLEWIGRVNPNNGGSSYNQKFKDKAILTVDKSSTTAYMELRSLTSEDSAVYYCARDPLGGSYGFAYWGQGTLVTVSA
VL: DIVLTQSPASLAVSLGQRATISCRASQSVTTSSYSYMHWYQQKPGQPPKLLIKYASNLESGVPARFSGSGSGTDFTLNIHPVEEEDTATYYCQHSWEIPYTFGGGTKLEMK
notes: as for B1
As for B2, the results for the EC50 in test [4] and in test [5] were less than 5 nM and 25 to 133 nM, respectively.

B3: N4_mAb 6 (antibody, human IgG1, V domains shown)
VH: QVQLQQSGPELVKPGASVRISCKASGYTFTTYYIHWVKQRPGQGLEWIGWIYPGNVNTKYTENFKDKATLTADKSSSTAYMQLSSLTSEDSAVYFCARGLYYFDFWGQGTTLTVSS
VL: SIVMTQTPKFLLVSAGDRVTITCKASQSVNNDVAWYQQKPGQSPKLLIYYASNRDTGVPDRFTGSGFGTDFTFTISSVQAEDLAVYFCQQDYSSPYTFGGGTKLEIK
notes: Tested as chimera (murine variable regions, human IgG1/kappa constants); not shown: human IgG1 constant region (Uniprot P01857); human Kappa light chain constant region (UniProt P01834)
On to B3, for which the EC50 in test [4] is less than 5 nM; in test [6] it was 5 to 25 nM.

B4: N4_mAb 7 (antibody, human IgG1, V domains shown)
VH: QVQLQQSGPELVKPGASVKMSCKASGYTFTTYYIHWVKQRPGQGLEWIGWIYPGNAGIKSNEKFKGKTTLTADKSSSTAYMLLSSLTSEDSAIYFCARGVYFFDYWGQGTTLTVSS
VL: B3 VL with A34S, Y36F, D55Y, T63S, F67Y, S76T, S77T
notes: as for B3
As to B4, the EC50 is less than 5 nM in test [4] and 5 to 25 nM in test [6].

B5: N4_mAb 8 (antibody, human IgG1, V domains shown)
VH: B3 VH with E10V, T31S, T61N, K65R, A79S, L100I, F105Y
VL: B3 VL with S1I, Q38E, F67Y, S77T, Q89H, Y96F, G100S
notes: as for B3
In the case of B5, the 50% effective concentration (EC50) in test [4] was less than 5 nM; in test [6] it was 5 to 25 nM.

B6: N4_mAb 3 (antibody, human IgG1, V domains shown)
VH: EVQLQQSGAELVKPGASVKLSCTVSGFNIKDTYMHWVKQRPEQGLEWIGRIDPANGNTKYDPKFQGKATIIADKASNTAYLQLSSLTSEDAAVYYCAHYYGSSYFAMDCWGQGTSVTVSS
VL: DIVMTQSHKFMSTSVGDRVSITCKASQDVSTAVAWYQQKPGQSPKLLIYWASTRHTGVPDRFTGSGSGTDYTLTISSVQTEDLALYYCQQHYSTPLTFGAGTKLELK
notes: as for B1
For B6, in test [1], the EC50 fell in the range of 25 to 133 nM.

B7: N4_mAb 2 (antibody, human IgG1, V domains shown)
VH: QVQLKQSGPNLVQPSQSLSITCTVSGFSLTTYGAHWVRQSPGKGLEWLGVIWRGGSTDYNAAFMSRLSITKDNSKSQVFFKMNSLQADDTAIYYCAKIGYDGYAMDNWGQGTSVTVSS
VL: DFQVTQSPASLSASVGETVTITCRTSENIHNYLAWYQQKQGKSPQLLVYNAKTLADGVPSRFSGSGSGTQYSLKINSLQPEDFGTYYCQHFWSSPWTFGGGTKLEIK
notes: as for B1
Take B7: the EC50 in test [7] and in test [6] was 5 to 25 nM each time.
